The data set deals with the molecule itself. As to the kind of experiment: crystal structure.

B1: SpeY-E269A/E270A double mutant (enzyme, Streptomyces spectabilis ATCC 27741)
chain: MSVRLADGKVRNPEGIEVNASLQCNMRCQSCAHLSPLYRRENADPAEIHDTLSVLARSYHASYAKIMGGEPLLHPDVVGLIEAVRATGISDTVLVATNGTLLHRATERFWQAVDSLEISVYPSRMIAPEEIERYRVLAREHGVSLLVNYYGHFRAVYSESGTDAPDLVRDVFDTCKLAHFWNSHTVYDGWLYRCPQSVFMPRQLRDGGWDPRVDGLRIEDDPAFLERLHRFLTADDPLRACRNCLGSVGKLHPHQELPRAGWQVTEQLAALVDYPFLKVCKDDITADDGCVERSLSAPVGGA
Take B1: the binding result is listed as “binds”.

For the origin of these results see paper PMC9204835 (Journal of the American Chemical Society, 2022).
